The source of these data is patent US20100092460A1 (Ablynx, published 2010).

First the molecules themselves.
T1: recombinant human CCL5/RANTES (Mucin stalk Chimera) (human, UniProt P13501 24-91, biotinylated in the ELISA)
T1 construct: also called mucin-CCL5; not shown: mucin stalk of the chimera (R&D 978-RN/CF); origin, limits and order not described
T1 sequence (looked up): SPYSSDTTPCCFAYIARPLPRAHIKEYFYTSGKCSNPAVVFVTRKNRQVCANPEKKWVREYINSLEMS

T2: hCCR1 (human, UniProt P32246 1-355)
T2 construct: whole, on cells
T2 sequence (looked up): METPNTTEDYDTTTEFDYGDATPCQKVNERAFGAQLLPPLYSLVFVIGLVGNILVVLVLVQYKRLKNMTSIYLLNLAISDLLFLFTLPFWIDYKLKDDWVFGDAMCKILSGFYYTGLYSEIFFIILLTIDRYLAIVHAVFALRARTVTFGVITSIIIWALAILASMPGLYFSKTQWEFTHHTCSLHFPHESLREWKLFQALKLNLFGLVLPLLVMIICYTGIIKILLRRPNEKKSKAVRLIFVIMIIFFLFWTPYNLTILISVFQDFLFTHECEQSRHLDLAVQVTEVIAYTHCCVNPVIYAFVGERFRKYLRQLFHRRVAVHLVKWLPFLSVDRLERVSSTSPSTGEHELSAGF

T3: hCXCR3 (human, UniProt P49682 1-368)
T3 construct: whole, on cells
T3 sequence (looked up): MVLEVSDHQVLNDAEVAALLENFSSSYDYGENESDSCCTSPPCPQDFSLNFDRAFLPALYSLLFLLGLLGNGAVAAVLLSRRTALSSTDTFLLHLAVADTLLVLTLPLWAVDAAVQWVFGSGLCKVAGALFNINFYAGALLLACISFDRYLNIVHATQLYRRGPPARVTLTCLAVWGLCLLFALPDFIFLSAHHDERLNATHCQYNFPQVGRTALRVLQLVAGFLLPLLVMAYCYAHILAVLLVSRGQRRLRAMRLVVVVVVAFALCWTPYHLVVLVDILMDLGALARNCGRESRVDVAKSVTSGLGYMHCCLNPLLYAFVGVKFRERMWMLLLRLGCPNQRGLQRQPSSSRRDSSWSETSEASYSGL

B1: Nanobody 10H3 (VHH)
VHH: EVQLVESGGGLVQAGGSLRLSCAASGRTFSTYVMGWFRQAPGKEREFVAGITSSIGVTRYAGSVQDRFTISKDNAKNTVFLQMNSLKPEDTADYYCAARPDYYISINPVAYPYWGQGTQVTVSS
notes: llama VHH against CCL5; purified; not shown: C-terminal c-myc tag and (His)6 tag coded by the vector
B2: Nanobody 11G9 (VHH)
VHH: EVQLVESGGGLVQPGGSLRLSCAASGGTLDDYVIGWFRQAPGKEREGVSCISSTDGSTYYADSVKGRFTISRDNAKNTVYLQVNSLKPEDTAVYYCAAGMGVLRQWALSKLSYDYWGQGTQVTVSS
notes: llama VHH against CXCL11; not shown: C-terminal c-myc tag and (His)6 tag coded by the vector
B3: CCL5 (ligand, UniProt P13501 24-91, looked up)
chain: T1 sequence (looked up)
modifications: also: 125I label, position not given here
notes: also called RANTES
B4: Nanobody 12A4 (VHH)
VHH: EVQLVESGGGLVQPGGSLRLSCAASGFTLDDYAIGWFRQAPGKEREGVSCINSNDGNTYYADSVKGRFTISRDNAKSTVYLQMNSLKPDDTAVYYCAAEAMGYCSAYGSFEGYWGQGTQVTVSS
notes: llama VHH against CXCL12; purified; also called 12C1; 12E4; not shown: C-terminal c-myc tag and (His)6 tag coded by the vector
B5: Nanobody 16D5 (VHH)
VHH: EVQLVESGGGLVQAGGSLRLSCAASGFTFDDYAIAWFRQAPGKEREVVSCISSSDGSTYYADSVKGRFTISSDNAKNTVFLQMNSLKPEDTAVYYCAAVSNCPRDSDYIPYLHYWWGQGTQVTVSS
notes: llama VHH against CCL2; not shown: C-terminal c-myc tag and (His)6 tag coded by the vector
B6: Nanobody 16C1 (VHH)
VHH: EVQLVESGGGLVQAGGSLRLSCAASGRTFSSYVMGWFRQAPGKEREFVAAIRWSGGSTYYADSVKGRFTISRDNAKNTVYLQMNSLKPEDTAVYYCAADLLGDSDYEPSSGFGSWGQGTQVTVSS
notes: as for B5
B7: recombinant human CXCL11/I-TAC (ligand, UniProt O14625 22-94, looked up)
chain: FPMFKRGRCLCIGPGVKAVKVADIEKASIMYPSNNCDKIEVIITLKENKGQRCLNPKSKQARLIIKKVERKNF
modifications: biotinylated in the ELISA; 125I label in the radioligand assays

In test [1] the target is T1, recombinant human CCL5/RANTES (Mucin …). Briefly: ELISA, periplasmic extract on biotinylated mucin-CCL5 on neutravidin, anti-myc detection.
The target in the test “CCL5” is B3. In words: inhibition of 125I-CCL5 binding to hCCR1 (HEK293T cells), purified Nanobody.
The target in test [2] is B7. Briefly: inhibition of 125I-CXCL11 binding to hCXCR3 (HEK293T cells), purified Nanobody.
Another test has as its target T2, hCCR1. Briefly: competition of unlabeled CCL5 with 125I-CCL5 on HEK293T cells with hCCR1.
Test [3] has as its target T4, recombinant human CXCL12/SDF1alpha (human, UniProt P48061-2 22-89, biotinylated in the ELISA; 125I label in the radioligand assays). In words: cell-based or functional assay.
In test [4] the target is T4, recombinant human CXCL12/SDF1alpha. In words: inhibition of 125I-CXCL12 (57 pM) binding to CXCR4 on HEK293T cells; specific-binding data.
The target is the same in test [5]. Briefly: inhibition of 125I-CXCL12 (57 pM) binding to CXCR4 on HEK293T cells; radioligand preincubated with purified Nanobody; total binding data.
The target in test [6] is T5, recombinant human CCL2/MCP1 (human, UniProt P13500 24-99, 125I label in the radioligand assays).
T5 construct: Immunogen and selection antigen was the Mucin stalk Chimera (R&D 979-MC/CF)
T5 sequence (P13500 24-99 limits assumed): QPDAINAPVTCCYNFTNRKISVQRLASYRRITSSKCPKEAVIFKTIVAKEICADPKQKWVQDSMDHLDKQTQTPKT
In words: inhibition of 125I-CCL2 binding to hCCR2 (HEK293T cells), 10x diluted extract.

The target in test [7] is T5, recombinant human CCL2/MCP1. In words: inhibition of 125I-CCL2 binding to hCCR2 (HEK293T cells), purified Nanobody and 10x diluted extract.
The target in another test is T3, hCXCR3. Briefly: competition of unlabeled CXCL11 with 125I-CXCL11 on HEK293T cells with hCXCR3.

What is called pIC50 is −log10 of the IC50, conventionally taken in molar units.

T4 sequence (P48061 22-89 limits assumed): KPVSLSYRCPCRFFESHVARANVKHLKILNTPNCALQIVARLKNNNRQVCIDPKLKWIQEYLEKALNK

Turning to B1, the binding result (in test [1]; with CCL5) was “binds” each time.

In the case of B2, the binding result in [2] was “binds”.

Turning to B3, the binding result with hCCR1 is on record as “binds”.

As for B4, the “inhibition of CXCL12-induced PLC activation (3H-inositol phosphate accumulation, HEK293T cells with CXCR4 and G-alpha-qi5), pIC50” value in test [3] was 7.2. In addition, the pIC50 in test [4] came to 9.1; in test [5] it was 8.7.

Consider B5, for which the binding result in test [6] was “binds”.

In the case of B6, the binding result in test [7] was “binds”.

On to B7, for which the binding result in the test with hCXCR3 was “binds”.
